# In article PMC9113893, “Carbon Material Hybrid Construction on an Aptasensor for Monitoring Surgical Tumors”:
# Target: carcinoembryonic antigen (CEA) (human, UniProt P06731 35-685)
# Assay: electrochemical aptasensor (interdigitated electrode, sandwich); immobilized aptamer; 0.5-1000 ng/mL CEA in PBS, or spiked in 1:100 human serum; LOD 0.5 ng/mL (not a Kd); PBS or 1:100 diluted human serum; graphene-modified IDE blocked with 1% BSA; pH, salt and temperature not stated
# Conditions: protein: commercial
# Chain of carcinoembryonic antigen (CEA) (P06731 35-685): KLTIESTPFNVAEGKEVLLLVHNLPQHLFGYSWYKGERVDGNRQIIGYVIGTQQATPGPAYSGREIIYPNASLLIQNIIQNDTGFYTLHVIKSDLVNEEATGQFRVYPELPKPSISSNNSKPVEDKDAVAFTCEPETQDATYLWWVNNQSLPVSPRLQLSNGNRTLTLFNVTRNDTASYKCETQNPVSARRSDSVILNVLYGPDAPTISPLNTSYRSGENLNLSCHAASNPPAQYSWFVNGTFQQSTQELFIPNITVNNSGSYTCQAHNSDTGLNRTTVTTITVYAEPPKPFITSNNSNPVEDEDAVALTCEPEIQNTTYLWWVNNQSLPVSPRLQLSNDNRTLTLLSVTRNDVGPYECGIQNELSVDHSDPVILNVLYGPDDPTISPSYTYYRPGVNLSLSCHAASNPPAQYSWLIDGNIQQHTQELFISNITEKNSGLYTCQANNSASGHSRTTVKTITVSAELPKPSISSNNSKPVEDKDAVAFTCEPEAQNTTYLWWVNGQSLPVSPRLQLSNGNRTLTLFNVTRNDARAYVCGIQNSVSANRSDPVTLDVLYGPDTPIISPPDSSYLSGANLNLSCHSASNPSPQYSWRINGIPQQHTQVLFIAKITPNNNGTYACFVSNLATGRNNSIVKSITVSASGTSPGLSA
binder,measurement,value
"TATCCAGCTTATTCAATT (ssDNA, 3'-NH2) [anti-CEA capture aptamer]",binding result,binds
